Results reported in patent publication US10526371B2, “Hydrogel-forming peptides” (Universiteit Gent, priority 2015, dated 2020).
Numbered stars: 1 amine (or outer) side, 2 acyl side, 3 side chain; on linkers, the order of the positions; unused ones are H or OH. Square brackets hold non-standard residues; d marks the D form. β3hCha = beta-3-homo-cyclohexylalanine, O=C(C[C@H](CC1CCCCC1)N[*:1])[*:2]; β3hW = N[C@H](CC(=O)O)Cc1c[nH]c2ccccc12; β3hF = N[C@H](CC(=O)O)Cc1ccccc1

Experiment: Peptide self-assembly / gelation conditions
Format: physicochemical
Settings: for time of gelation (self-supporting gel formed) / gelation condition: TFA salt; for time of gelation (self-supporting gel formed): at its own gelation condition
Protocol: Peptide self-assembly was analyzed in i) a PBS solution (10 mM), ii) a PBS/mQ mixture (1:1 v:v, mQ water with a resistivity of […]) or iii) a NaCl aqueous solution (150 mM). The TFA salt of reference peptide SEQ NO. 23 (1 mg) was dissolved in 50 μl mQ water, followed by the addition of 50 μl PBS solution. This mixture was left to rest overnight, resulting in a 1% w/v hydrogel. The TFA salt of mixed α/β-peptides SEQ ID NO 1 and SEQ ID NO 2 (2 mg) was dissolved in mQ (100 μL) and PBS/mQ mixture (100 μL), respectively. […] The TFA salt of mixed α/β-peptide SEQ ID NO 3 (3 mg) was dissolved in PBS (100 μL) to probe gelation. All self-assembled gels were analyzed by circular dichroism (CD) and Fourier transform infrared (FT-IR) spectroscopy, as well as cryogenic transmission electron microscopy (Cryo-TEM).
(SEQ ID NO:22 (=10-mer)), 100 μl mQ water was added to 2 mg of TFA-salt of pure peptide, then vortexed and sonicated. As a result, a transparent self-supporting gel was formed immediately. A gelation condition of 2 w/v % in mQ water was found.
for H-Fβ^2hFEFQFK-NH2 (SEQ ID NO:19), 100 μl of PBS was added to 2 mg of TFA-salt of pure peptide, then vortexed and sonicated. After overnight resting, a self-supporting gel was formed. A gelation condition of 2 w/v % in PBS was determined.

For “H-Glu-β^3hPhe-Phe-Lys-β^3hPhe-Phe-NH2 (H-E[β3hF]FK[β3hF]F-NH2; SMILES NCCCC[C@H](NC(=O)[C@H](Cc1ccccc1)NC(=O)C[C@H](Cc1ccccc1)NC(=O)[C@@H](N)CCC(=O)O)C(=O)N[C@H](CC(=O)N[C@@H](Cc1ccccc1)C(N)=O)Cc1ccccc1) [SEQ ID NO 12]”, the “Gelation condition % (w/v)” value (in mQ/PBS 1:0.5) was 1.5% (mQ/PBS 1:0.5) % (w/v).
For “H-Phe-Gln-β^3hPhe-Phe-Gln-β^3hPhe-Phe-Lys-OH (H-FQ[β3hF]FQ[β3hF]FK-OH; SMILES NCCCC[C@H](NC(=O)[C@H](Cc1ccccc1)NC(=O)C[C@H](Cc1ccccc1)NC(=O)[C@H](CCC(N)=O)NC(=O)[C@H](Cc1ccccc1)NC(=O)C[C@H](Cc1ccccc1)NC(=O)[C@H](CCC(N)=O)NC(=O)[C@@H](N)Cc1ccccc1)C(=O)O) [SEQ ID NO 5]”, the “Gelation condition % (w/v)” value (in mQ) was 2% (mQ) % (w/v).
For “H-Phe-Gln-β^3hPhe-Phe-Lys-NH2 (H-FQ[β3hF]FK-NH2; SMILES NCCCC[C@H](NC(=O)[C@H](Cc1ccccc1)NC(=O)C[C@H](Cc1ccccc1)NC(=O)[C@H](CCC(N)=O)NC(=O)[C@@H](N)Cc1ccccc1)C(N)=O) [SEQ ID NO 9]”, the “Gelation condition % (w/v)” value (in PBS) was 3% (PBS) % (w/v).
In the case of “H-Phe-Glu-Phe-Gln-Phe-Lys-β^3hPhe-Phe-NH2 (H-FEFQFK[β3hF]F-NH2; SMILES NCCCC[C@H](NC(=O)[C@H](Cc1ccccc1)NC(=O)[C@H](CCC(N)=O)NC(=O)[C@H](Cc1ccccc1)NC(=O)[C@H](CCC(=O)O)NC(=O)[C@@H](N)Cc1ccccc1)C(=O)N[C@H](CC(=O)N[C@@H](Cc1ccccc1)C(N)=O)Cc1ccccc1) [SEQ ID NO 21]”, the “Gelation condition % (w/v)” value (in mQ/PBS 1:1) is reported as 1.5% (mQ/PBS 1:1) % (w/v).
In the case of “H-Phe-Glu-Phe-Gln-β^3hPhe-Phe-Lys-NH2 (H-FEFQ[β3hF]FK-NH2; SMILES NCCCC[C@H](NC(=O)[C@H](Cc1ccccc1)NC(=O)C[C@H](Cc1ccccc1)NC(=O)[C@H](CCC(N)=O)NC(=O)[C@H](Cc1ccccc1)NC(=O)[C@H](CCC(=O)O)NC(=O)[C@@H](N)Cc1ccccc1)C(N)=O) [SEQ ID NO 18]”, the “Gelation condition % (w/v)” value (in PBS) is reported as 2% (PBS) % (w/v).
For “H-Phe-Glu-β^3Phe-Tyr-Gln-β^3hPhe-Tyr-Lys-OH (H-FE[β3hF]YQ[β3hF]YK-OH) [SEQ ID NO 4]”, the “Gelation condition % (w/v)” value (in PBS) was 2% (PBS) % (w/v).
With “H-Phe-Glu-β^3hCha-Phe-Gln-β^3hCha-Phe-Lys-OH (H-FE[β3hCha]FQ[β3hCha]FK-OH) [SEQ ID NO 8]” the “Gelation condition % (w/v)” value (in mQ) was 3% (mQ) % (w/v).
For “H-Phe-Glu-β^3hPhe-Phe-Gln-Phe-Gln-β^3hPhe-Phe-Lys-NH2 (H-FE[β3hF]FQFQ[β3hF]FK-NH2; SMILES NCCCC[C@H](NC(=O)[C@H](Cc1ccccc1)NC(=O)C[C@H](Cc1ccccc1)NC(=O)[C@H](CCC(N)=O)NC(=O)[C@H](Cc1ccccc1)NC(=O)[C@H](CCC(N)=O)NC(=O)[C@H](Cc1ccccc1)NC(=O)C[C@H](Cc1ccccc1)NC(=O)[C@H](CCC(=O)O)NC(=O)[C@@H](N)Cc1ccccc1)C(N)=O) [SEQ ID NO 22]”, the “time of gelation (self-supporting gel formed)” value was “immediately”, the gelation condition (in mQ water) was 2 w/v % and the “Gelation condition % (w/v)” value (in mQ) was 2% (mQ) % (w/v).
In the case of “H-Phe-Glu-β^3hPhe-Phe-Gln-Phe-Lys-NH2 (H-FE[β3hF]FQFK-NH2; SMILES NCCCC[C@H](NC(=O)[C@H](Cc1ccccc1)NC(=O)[C@H](CCC(N)=O)NC(=O)[C@H](Cc1ccccc1)NC(=O)C[C@H](Cc1ccccc1)NC(=O)[C@H](CCC(=O)O)NC(=O)[C@@H](N)Cc1ccccc1)C(N)=O) [SEQ ID NO 13]”, the “Gelation condition % (w/v)” value (in PBS) is reported as 2% (PBS) % (w/v).
For “H-Phe-Glu-β^3hPhe-Phe-Gln-Phe-Lys-Phe-NH2 (H-FE[β3hF]FQFKF-NH2; SMILES NCCCC[C@H](NC(=O)[C@H](Cc1ccccc1)NC(=O)[C@H](CCC(N)=O)NC(=O)[C@H](Cc1ccccc1)NC(=O)C[C@H](Cc1ccccc1)NC(=O)[C@H](CCC(=O)O)NC(=O)[C@@H](N)Cc1ccccc1)C(=O)N[C@@H](Cc1ccccc1)C(N)=O) [SEQ ID NO 20]”, the “Gelation condition % (w/v)” value (in mQ/PBS 1:1) was 1.5% (mQ/PBS 1:1) % (w/v).
In the case of “H-Phe-Glu-β^3hPhe-Phe-Lys-NH2 (H-FE[β3hF]FK-NH2; SMILES NCCCC[C@H](NC(=O)[C@H](Cc1ccccc1)NC(=O)C[C@H](Cc1ccccc1)NC(=O)[C@H](CCC(=O)O)NC(=O)[C@@H](N)Cc1ccccc1)C(N)=O) [SEQ ID NO 6]”, the “Gelation condition % (w/v)” value (in PBS) is reported as 3% (PBS) % (w/v).
For “H-Phe-Glu-β^3hPhe-Phe-Lys-OH (H-FE[β3hF]FK-OH; SMILES NCCCC[C@H](NC(=O)[C@H](Cc1ccccc1)NC(=O)C[C@H](Cc1ccccc1)NC(=O)[C@H](CCC(=O)O)NC(=O)[C@@H](N)Cc1ccccc1)C(=O)O) [SEQ ID NO 7]”, the “Gelation condition % (w/v)” value (in mQ) was 3% (mQ) % (w/v).
For “H-Phe-Glu-β^3hPhe-Phe-Lys-Phe-NH2 (H-FE[β3hF]FKF-NH2; SMILES NCCCC[C@H](NC(=O)[C@H](Cc1ccccc1)NC(=O)C[C@H](Cc1ccccc1)NC(=O)[C@H](CCC(=O)O)NC(=O)[C@@H](N)Cc1ccccc1)C(=O)N[C@@H](Cc1ccccc1)C(N)=O) [SEQ ID NO 11]”, the “Gelation condition % (w/v)” value (in PBS) was 2% (PBS) % (w/v).
With “H-Phe-Glu-β^3hPhe-Phe-Lys-β^3hPhe-Phe-NH2 (H-FE[β3hF]FK[β3hF]F-NH2; SMILES NCCCC[C@H](NC(=O)[C@H](Cc1ccccc1)NC(=O)C[C@H](Cc1ccccc1)NC(=O)[C@H](CCC(=O)O)NC(=O)[C@@H](N)Cc1ccccc1)C(=O)N[C@H](CC(=O)N[C@@H](Cc1ccccc1)C(N)=O)Cc1ccccc1) [SEQ ID NO 16]” the “Gelation condition % (w/v)” value (in mQ) was 2% (mQ) % (w/v).
In the case of “H-Phe-β^3hPhe-Glu-Phe-Gln-Phe-Lys-NH2 (H-F[β3hF]EFQFK-NH2; SMILES NCCCC[C@H](NC(=O)[C@H](Cc1ccccc1)NC(=O)[C@H](CCC(N)=O)NC(=O)[C@H](Cc1ccccc1)NC(=O)[C@H](CCC(=O)O)NC(=O)C[C@H](Cc1ccccc1)NC(=O)[C@@H](N)Cc1ccccc1)C(N)=O) [SEQ ID NO 19]”, the “time of gelation (self-supporting gel formed)” value is reported as “overnight”, the gelation condition (in PBS) is reported as 2 w/v % and the “Gelation condition % (w/v)” value (in PBS) is reported as 2% (PBS) % (w/v).
In the case of “H-Trp-Glu-β^3hPhe-Phe-Gln-Trp-Lys-NH2 (H-WE[β3hF]FQWK-NH2; SMILES NCCCC[C@H](NC(=O)[C@H](Cc1c[nH]c2ccccc12)NC(=O)[C@H](CCC(N)=O)NC(=O)[C@H](Cc1ccccc1)NC(=O)C[C@H](Cc1ccccc1)NC(=O)[C@H](CCC(=O)O)NC(=O)[C@@H](N)Cc1c[nH]c2ccccc12)C(N)=O) [SEQ ID NO 15]”, the “Gelation condition % (w/v)” value (in PBS) is reported as 2% (PBS) % (w/v).
For “H-Trp-Glu-β^3hTrp-Trp-Gln-Trp-Lys-NH2 (H-WE[β3hW]WQWK-NH2; SMILES NCCCC[C@H](NC(=O)[C@H](Cc1c[nH]c2ccccc12)NC(=O)[C@H](CCC(N)=O)NC(=O)[C@H](Cc1c[nH]c2ccccc12)NC(=O)C[C@H](Cc1c[nH]c2ccccc12)NC(=O)[C@H](CCC(=O)O)NC(=O)[C@@H](N)Cc1c[nH]c2ccccc12)C(N)=O) [SEQ ID NO 14]”, the “Gelation condition % (w/v)” value (in mQ/PBS 1:0.5) was 1.5% (mQ/PBS 1:0.5) % (w/v).
For “H-β^3hPhe-Phe-Glu-Phe-Gln-Phe-Lys-NH2 (H-[β3hF]FEFQFK-NH2; SMILES NCCCC[C@H](NC(=O)[C@H](Cc1ccccc1)NC(=O)[C@H](CCC(N)=O)NC(=O)[C@H](Cc1ccccc1)NC(=O)[C@H](CCC(=O)O)NC(=O)[C@H](Cc1ccccc1)NC(=O)C[C@@H](N)Cc1ccccc1)C(N)=O) [SEQ ID NO 17]”, the “Gelation condition % (w/v)” value (in PBS) was 2% (PBS) % (w/v).
In the case of “H-β^3hPhe-Phe-Glu-β^3hPhe-Phe-Lys-NH2 (H-[β3hF]FE[β3hF]FK-NH2; SMILES NCCCC[C@H](NC(=O)[C@H](Cc1ccccc1)NC(=O)C[C@H](Cc1ccccc1)NC(=O)[C@H](CCC(=O)O)NC(=O)[C@H](Cc1ccccc1)NC(=O)C[C@@H](N)Cc1ccccc1)C(N)=O) [SEQ ID NO 10]”, the “Gelation condition % (w/v)” value (in PBS) is reported as 1% (PBS) % (w/v).
